{"source": "patent US12258605B2", "about": "“Alkane oxidation by modified hydroxylases” (The California Institute of Technology, priority 2005, dated 2025)", "molecules": {"B1": {"name": "P450PMO: P450 BM-3 variant, SEQ ID NO:125; 7-7 plus G443A and D698G; propane monooxygenase (protein)", "chain": "TIKEMPQPKTFGELKNLPLLNTDKPVQALMKIADELGEIFKFEAPGCVTRYISSQRLIKEACDESRFDKNLSQELKFFRDFGGDGLFTSWTHEINWKKAHNILLPSFSQQAMKGYHAMMVDIAVQLVQKWERLNADEHIEVSEDMTRLTLDTIGLCGFNYRFNSFYRDQPHPFIISMVRALDEVMNKPQRANPDDPAYDENKRQCQEDIKVMNDLVDKIIADRKARGEQSDDLLTQMLNGKDPETGEPLDDGNISYQIITFLIAGHETTSGLLSFALYFLVKNPHVLQKVVEEAARVLVDPVPSYKQVKQLKYVGMVLNEALRLWPTFPAFSLYAKEDTVLGGEYPLEKGDEVMVLIPQLHRDKTVWGDDVEEFRPERFENPSAIPQHAFKPFGNGQRACIGQQFALHEATLVLGMMLKHFDFEDHTNYELDIKETLTLKPEAFVVKAKSKKIPLGGIPSPSTGQSAKKVRKKAENAHNTPLLVLYGSNMGTAEGTARDLADIAMSKGFAPQVATLDSHAGNLPREGAVLIVTASYNGHPPDNAKQFVDWLDQASADEVKGVRYSVFGCGDKNWATTYQKVPAFIDETLAAKGAENIADRGEADASDDFEGTYEEWREHMWSDVAAYFNLDIENSEDNKSTLSLQFVDSAADMPLAKMHGAFSTNVVASKELQQPGSARSTRHLEIELPKEASYQEGGHLGVIPRNYEGTVNRVTARFGLDASQQIRLEAEEEKLAHLPLAKTVSVEELLQYVELQDPVTRTQLRAMAAKTVCPPHKVELEALLEKQAYKEQVLAKRLTMLELLEKYPACEMKFSEFIALLPSIRPRYYSISSSPRVDEKQASITVSVVSGEAWSGYGEYKGIASNYLAELQEGDTITCFISTPQSEFTLPKDPETPLIMVGPGTGVAPFRGFVQARKQLKEQGQSLGEAHLYFGCRSPHEDYLYQEELENAQSEGIITLHTAFSRMPNQPKTYVQHVMEQDGKKLIELLDQGAHFYICGDGSQMAPAVEATLMKSYADVHQVSEADARLWLQQLEEKGRYAKDVWAG", "modifications": "Mutant P450PMO protein sequence", "notes": "7-7 plus G443A and D698G; propane monooxygenase"}}, "type_in_all_cases": "biochemical", "key": {"[1]": {"assay": "Kinetic constants for n-alkanes: heptane", "settings": "N.m = not measurable", "description": "Rate measurements. Initial rates of product formation were determined at 25° C. in 100 mM KPi pH 8.0 buffer using purified protein (100 nM) and a substrate concentration of 1.6 mM. In a 5 mL-vial, 20 μL of alkane solution (in ethanol) were dissolved in 400 μL KPi buffer, to which 500 μL enzyme solution at 100-200 nM was added. Reaction was initiated by adding 100 μL of 5 mM NADPH solution, followed by stirring at 300 rpm for 1 minute, and quenched by adding 200 μL chloroform and stirring at 800 rpm for 10 sec. Solutions were transferred to an Eppendorf tube, to which internal standard (10 μL 25 mM 1-bromohexane in ethanol) was added. Tubes were vortexed for 10 sec and centrifuged for 30 sec at 10,000 g. Organic phase was removed and analyzed by GC. For propane, reactions were carried out in a 5 mL-scale using 100-400 nM purified enzyme, propane-saturated buffer (propane concentration≈1.6 mM) and a final NADPH concentration of 500 μM. Reactions were stopped by addition of 200 μL H2SO4 conc. and analyzed by derivatization to alkyl nitrites followed by GC-ECD analysis as described below.\n(§1) Products from alkane reactions were identified and quantified by gas chromatography using authentic standards and calibration curves with internal standards. For the reactions with alkanes from pentane to decane, GC analyses were carried out using a Shimadzu GC-17A gas chromatograph, Agilent HP5 column (30 m×0.32 mm×0.1 μm film), 1 μL injection, FID detector, and the following separation program: 250° C. inlet, 250° C. detector, 50° C. oven for 3 min, 5° C./min gradient to 100° C., 25° C./min gradient to 230° C., and 230° C. for 3 min. For butane and propane (TTN) reactions, GC analyses were carried out using a Hewlett-Packard 5890 Series II Plus gas chromatograph, Supelco SPB-1 column (60 m×0.52 mm×0.5 μm film), 0.5 μL injection, FID detector, and the following separation program: 250° C. inlet, 275° C. detector, 80° C. oven for 2 min, 10° C./min gradient to 110° C., 25° C./min gradient to 275° C., and 275° C. for 2.5 min. For ethane and propane (rate) reactions, analysis of reaction mixtures was carried out by derivatization to alkyl nitrites followed by GC-ECD analysis. For laurate, reaction product analysis was carried out by derivatization with N-methyl-N-trimethylsilylheptafluorobutyramide followed by extraction with hexane. Organic solutions were analyzed by FID-GC.\nTo further investigate the evolution of substrate specificity, kinetic constants for the C5 to C8 alkanes were determined from Michaelis-Menten plots (Table 19). The preference of 35E11 and its evolutionary predecessors for medium-chain alkanes is indicated by their high C8/C5 specificities ((kcat/Km)8/(kcat/Km)5˜100), where Km appears to be the major contributing factor. C8/C5 specificity decreases to ˜5 in the immediate precursors of P450PMO and then switches altogether to the smaller alkane, becoming 0.4 in P450PMO. In P450PMO, catalytic efficiency is highest on propane and decreases along the alkane series, driven by decreasing kcat."}, "[2]": {"assay": "Reactions on alkanes, total turnovers (Table 18): ethane", "settings": "ethane (2 C atoms)", "description": "(§2) Reactions on alkanes. Reactions with alkanes from pentane to decane were carried out at 3 mL-scale using 100 mM KPi pH 8.0 buffer containing 2% ethanol (to allow alkane solubilization) and purified protein. 2.5 mL KPi buffer were added with 60 μL of 90 mM alkane solution in ethanol (final conc.=1.8 mM), 150 μL enzyme solution at 1 μM (final conc.=50 nM), and 300 μL NADPH regeneration solution (100 units/mL isocitrate dehydrogenase, 70 mg/mL isocitrate, 1.5 mg/ml NADP^+). Vials were sealed and stirred for 24 hours at 4° C. 1 mL-aliquot of the reaction was removed, added with 10 μl internal standard (25 mM 1-bromohexane in ethanol), and extracted with 200 μl chloroform (30 sec vortexing, 1 min centrifugation at 10000 g). The organic phase was removed and analyzed by gas chromatography. Reactions with ethane, propane, and butane were carried out as described for longer alkanes with the only difference that alkane-saturated KPi buffer was used. Propane reactions with variants from HL5 and L9 libraries were performed on 1 mL-scale reaction using 20 nM enzyme to reduce oxygen limitation. Propane and butane reactions were analyzed by direct injection of reaction solution on the GC using 1-pentanol as internal standard. Ethane reaction products were functionalized (see below) and analyzed by GC using 1-butanol as internal standard. All measurements were performed in triplicate.\nas §1\n(§3) TTNs for each variant-substrate pair were determined using standardized reaction conditions (identical enzyme and substrate concentration, incubation time, cofactor regeneration system) (Table 18). TTN values were used to assess performance because TTN is a cumulative measure of both catalytic and coupling efficiency and because mutants were selected based on improvement in this property. To facilitate comparison among the variants, TTNs were normalized to the highest value in the series (MTN=Maximal Turnover Number) and plotted for the increasing-sized substrates (FIG. 38). A gradual shift of the enzyme's substrate preference during laboratory evolution is evident from these profiles. The marginal activity of wild-type BM3 on these substrates (MTN=150) is restricted to the long-chain alkanes, where it is a promiscuous function of BM3's high C12-C20 fatty acid hydroxylase activity. In the first evolutionary intermediates, substrate preference centers on medium-chain alkanes […], reflecting their selection for activity on octane. In 35E11, selected for activity on propane, preference still centers on C6-C8 alkanes but now extends towards the shorter ones, including propane. Propane activity becomes prevalent with the transition from variant ETS8 to 19A12. […]"}, "[3]": {"assay": "Reactions on alkanes, total turnovers (Table 18): butane", "description": "as §2, §1, §3"}, "[4]": {"assay": "Reactions on alkanes, total turnovers (Table 18): pentane", "settings": "pentane (5 C atoms)", "description": "as §2, §1, §3"}, "[5]": {"assay": "Reactions on alkanes, total turnovers (Table 18): hexane", "settings": "hexane (6 C atoms)", "description": "as §2, §1, §3"}, "[6]": {"assay": "Reactions on alkanes, total turnovers (Table 18): nonane", "settings": "nonane (9 C atoms)", "description": "as §2, §1, §3"}, "[7]": {"settings": "TTN normalized to the highest value of the variant's series"}, "[8]": {"settings": "total turnovers, standardized reaction conditions"}}, "data": [{"molecule": "B1", "values": [{"measurement": "kcat", "setting": "[1]", "value": "0.533 ± 0.083", "unit": "s⁻¹"}, {"measurement": "Km", "setting": "[1]; read-out: Km", "value": "190 ± 40", "unit": "µM"}, {"measurement": "% rel. act.", "setting": "[2]; [7]", "value": 12.4, "unit": "%"}, {"measurement": "TTN", "setting": "[2]; [8]", "value": "2550 ± 250"}, {"measurement": "% rel. act.", "setting": "[3]; butane (4 C atoms), TTN normalized to the highest value of the variant's series", "value": 30.2, "unit": "%"}, {"measurement": "TTN", "setting": "[3]; butane (4 C atoms), total turnovers, standardized reaction conditions", "value": "6200 ± 400"}, {"measurement": "drop in activity when a single methylene unit is added to the substrate", "setting": "[3]; relative to propane", "value": 90, "unit": "%"}, {"measurement": "% rel. act.", "setting": "[4]; [7]", "value": 4.9, "unit": "%"}, {"measurement": "TTN", "setting": "[4]; [8]", "value": "1000 ± 110"}, {"measurement": "% rel. act.", "setting": "[5]; [7]", "value": 12.7, "unit": "%"}, {"measurement": "TTN", "setting": "[5]; [8]", "value": "2600 ± 205"}, {"measurement": "% rel. act.", "setting": "[6]; [7]", "value": 11.7, "unit": "%"}, {"measurement": "TTN", "setting": "[6]; [8]", "value": "2390 ± 30"}]}]}
